Consider 12 variants from IntAct's records for PubMed 23602662.

B1: OX-2 membrane glycoprotein (Mus musculus), O54901 (parent)
chain: MGSLVFRRPFCHLSTYSLIWGMAAVALSTAQVEVVTQDERKALHTTASLRCSLKTSQEPLIVTWQKKKAVSPENMVTYSKTHGVVIQPAYKDRINVTELGLWNSSITFWNTTLEDEGCYMCLFNTFGSQKVSGTACLTLYVQPIVHLHYNYFEDHLNITCSATARPAPAISWKGTGTGIENSTESHFHSNGTTSVTSILRVKDPKTQVGKEVICQVLYLGNVIDYKQSLDKGFWFSVPLLLSIVSLVILLVLISILLYWKRHRNQERGESSQGMQRMK
partner: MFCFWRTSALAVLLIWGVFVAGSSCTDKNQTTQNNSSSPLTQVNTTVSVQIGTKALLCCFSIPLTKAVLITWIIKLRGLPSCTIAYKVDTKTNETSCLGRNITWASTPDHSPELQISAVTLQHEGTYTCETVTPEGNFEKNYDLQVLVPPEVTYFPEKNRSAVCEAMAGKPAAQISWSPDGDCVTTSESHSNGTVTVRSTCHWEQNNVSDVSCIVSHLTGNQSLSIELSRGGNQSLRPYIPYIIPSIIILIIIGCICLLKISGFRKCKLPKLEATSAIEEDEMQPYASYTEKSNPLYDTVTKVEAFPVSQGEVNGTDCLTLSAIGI
B2: Cell surface glycoprotein CD200 receptor 4 (Mus musculus), Q6XJV4 (parent)
chain: MHALGRIPTLTLLIFINIFVSGSSCTDENQTIQNDSSSSLTQVNTTMSVQMDKKALLCCFSSPLINAVLITWIIKHRHLPSCTIAYNLDKKTNETSCLGRNITWASTPDHSPELQISAVALQHEGTYTCEIVTPEGNLEKVYDLQVLVPPEVTYFPGKNRTAVCEAMAGKPAAQISWTPDGDCVTKSESHSNGTVTVRSTCHWEQNNVSVVSCLVSHSTGNQSLSIELSQGTMTTPRSLLTILYVKMALLVIILLNVGFAFFQKRNFART
partner: B1 chain

One assay covers variants of B1. The note with it: with mo2r1_mouse Cd200r1, Q9ES57.
Consider MGSLVFRRPFCHLSTYSLIWGMAAVALSTAQVEVVTQDERKALHTTASLRCSLKTSQEPLEVTWQKKKAVSPENMVTYSKTHGVVIQPAYKDRINVTELGLWNSSITFWNTTLEDEGCYMCLFNTFGSQKVSGTACLTLYVQPIVHLHYNYFEDHLNITCSATARPAPAISWKGTGTGIENSTESHFHSNGTTSVTSILRVKDPKTQVGKEVICQVLYLGNVIDYKQSLDKGFWFSVPLLLSIVSLVILLVLISILLYWKRHRNQERGESSQGMQRMK [I61E], for which the “effect of a mutation on the interaction” value is listed as “disrupting interaction strength”.
On the same count and under the same terms, next, MGSLVFRRPFCHLSTYSLIWGMAAVALSTAQVEVVTQDERKALHTTASLRCSLKTSQEPLIVTWQKKKAVSPENMVTYSKTHGVVIQPAYKDRINVTELGLWNSSITFWNTTLEDEGCYMCAFNTFGSQKVSGTACLTLYVQPIVHLHYNYFEDHLNITCSATARPAPAISWKGTGTGIENSTESHFHSNGTTSVTSILRVKDPKTQVGKEVICQVLYLGNVIDYKQSLDKGFWFSVPLLLSIVSLVILLVLISILLYWKRHRNQERGESSQGMQRMK [L122A]: “disrupting interaction strength”; MGSLVFRRPFCHLSTYSLIWGMAAVALSTAQVEVVTQDERKALHTTASLRCSLKTSQEPLIVTWQKKKAVSPENMVTYSKTHGVVIQPAYKDRINVTELGLWNSSITFWNTTLEDEGCYMCLFKTFGSQKVSGTACLTLYVQPIVHLHYNYFEDHLNITCSATARPAPAISWKGTGTGIENSTESHFHSNGTTSVTSILRVKDPKTQVGKEVICQVLYLGNVIDYKQSLDKGFWFSVPLLLSIVSLVILLVLISILLYWKRHRNQERGESSQGMQRMK [N124K]: “disrupting interaction strength”; MGSLVFRRPFCHLSTYSLIWGMAAVALSTAQVEVVTQDERKALHTTASLRCSLKTSQEPLIVTWQKKKAVSPENMVTYSKTHGVVIQPAYKDRINVTELGLWNSSITFWNTTLEDEGCYMCLFNTAGSQKVSGTACLTLYVQPIVHLHYNYFEDHLNITCSATARPAPAISWKGTGTGIENSTESHFHSNGTTSVTSILRVKDPKTQVGKEVICQVLYLGNVIDYKQSLDKGFWFSVPLLLSIVSLVILLVLISILLYWKRHRNQERGESSQGMQRMK [F126A]: “disrupting interaction strength”.
The same measure, in the same setting: to MGSLVFRRPFCHLSTYSLIWGMAAVALSTAQVEVVTQDERKALHTTASLRCSLKTSQEPLIVTWQKKKAVSPENMVTYSKTHGVVIQPAYKDRINVTELGLWNSSITFWNTTLEDEGCYMCLFNTDGSQKVSGTACLTLYVQPIVHLHYNYFEDHLNITCSATARPAPAISWKGTGTGIENSTESHFHSNGTTSVTSILRVKDPKTQVGKEVICQVLYLGNVIDYKQSLDKGFWFSVPLLLSIVSLVILLVLISILLYWKRHRNQERGESSQGMQRMK [F126D] belongs “disrupting interaction strength”.
Still for that read-out and setting: to MGSLVFRRPFCHLSTYSLIWGMAAVALSTAQVEVVTQDERKALHTTASLRCSLKTSQEPKIVTWQKKKAVSPENMVTYSKTHGVVIQPAYKDRINVTELGLWNSSITFWNTTLEDEGCYMCLFNTFGSQKVSGTACLTLYVQPIVHLHYNYFEDHLNITCSATARPAPAISWKGTGTGIENSTESHFHSNGTTSVTSILRVKDPKTQVGKEVICQVLYLGNVIDYKQSLDKGFWFSVPLLLSIVSLVILLVLISILLYWKRHRNQERGESSQGMQRMK [L60K] belongs “disrupting interaction strength”; to MGSLVFRRPFCHLSTYSLIWGMAAVALSTAQVEVVTQDERKALHTTASLRCSLKTSQEPLIVTWQKKKAVSPENMVTYSKTHGVVIQPAYKDRINVTELGLWNSSITFWNTTLEDEGCYMCLFNTFGSQEVSGTACLTLYVQPIVHLHYNYFEDHLNITCSATARPAPAISWKGTGTGIENSTESHFHSNGTTSVTSILRVKDPKTQVGKEVICQVLYLGNVIDYKQSLDKGFWFSVPLLLSIVSLVILLVLISILLYWKRHRNQERGESSQGMQRMK [K130E], “disrupting interaction strength”; to MGSLVFRRPFCHLSTYSLIWGMAAVALSTAQVEVVTQDERKALHTTASLRCSLKTSQEPLIVTWQKKKAVSPEAMVTYSKTHGVVIQPAYKDRINVTELGLWNSSITFWNTTLEDEGCYMCLFNTFGSQKVSGTACLTLYVQPIVHLHYNYFEDHLNITCSATARPAPAISWKGTGTGIENSTESHFHSNGTTSVTSILRVKDPKTQVGKEVICQVLYLGNVIDYKQSLDKGFWFSVPLLLSIVSLVILLVLISILLYWKRHRNQERGESSQGMQRMK [N74A], “disrupting interaction strength”.
On to MGSLVFRRPFCHLSTYSLIWGMAAVALSTAQVEVVTQDERKALHTTASLRCSLKTSQEPLIVTWQKKKAVSPEDMVTYSKTHGVVIQPAYKDRINVTELGLWNSSITFWNTTLEDEGCYMCLFNTFGSQKVSGTACLTLYVQPIVHLHYNYFEDHLNITCSATARPAPAISWKGTGTGIENSTESHFHSNGTTSVTSILRVKDPKTQVGKEVICQVLYLGNVIDYKQSLDKGFWFSVPLLLSIVSLVILLVLISILLYWKRHRNQERGESSQGMQRMK [N74D], for which the “effect of a mutation on the interaction” value is on record as “disrupting interaction strength”.

In another assay the parent is B2. To be noted: with ox2g_mouse Cd200, O54901.
As for MHALGRIPTLTLLIFINIFVSGSSCTDENQTIQNDSSSSLTQVNTTMSVQMDKKALLCCFSSPLINAVLITWIIKHRHLPSCTIAYKLDTKTNETSCLGRNITWASTPDHSPELQISAVALQHEGTYTCEIVTPEGNFEKVYDLQVLVPPEVTYFPGKNRTAVCEAMAGKPAAQISWTPDGDCVTKSESHSNGTVTVRSTCHWEQNNVSVVSCLVSHSTGNQSLSIELSQGTMTTPRSLLTILYVKMALLVIILLNVGFAFFQKRNFART [N87K;K90T;L138F], the “effect of a mutation on the interaction” value is recorded as “increasing interaction strength”.
The same measure, in the same setting: next, MHALGRIPTLTLLIFINIFVSGSSCTDENQTIQNDSSSSLTQVNTTMSVQMDKKALLCCFSSPLINAVLITWIIKHRHLPSCTIAYKLDTKTNETSCLGRNITWASTPDHSPELQISAVALQHEGTYTCEIVTPEGNLEKVYDLQVLVPPEVTYFPGKNRTAVCEAMAGKPAAQISWTPDGDCVTKSESHSNGTVTVRSTCHWEQNNVSVVSCLVSHSTGNQSLSIELSQGTMTTPRSLLTILYVKMALLVIILLNVGFAFFQKRNFART [N87K;K90T]: “increasing interaction strength”; MHALGRIPTLTLLIFINIFVSGSSCTDENQTIQNDSSSSLTQVNTTMSVQMDKKALLCCFSSPLINAVLITWIIKHRHLPSCTIAYNLDKKTNETSCLGRNITWASTPDHSPELQISAVALQHEGTYTCEIVTPEGNFEKVYDLQVLVPPEVTYFPGKNRTAVCEAMAGKPAAQISWTPDGDCVTKSESHSNGTVTVRSTCHWEQNNVSVVSCLVSHSTGNQSLSIELSQGTMTTPRSLLTILYVKMALLVIILLNVGFAFFQKRNFART [L138F]: “increasing interaction strength”.
